Laboratory results: patent US20100184701A1 (TREVENA, published 2010)

T1: rat angiotensin 2 type 1 receptor (rat, UniProt P25095 1-359)
T1 sequence (looked up): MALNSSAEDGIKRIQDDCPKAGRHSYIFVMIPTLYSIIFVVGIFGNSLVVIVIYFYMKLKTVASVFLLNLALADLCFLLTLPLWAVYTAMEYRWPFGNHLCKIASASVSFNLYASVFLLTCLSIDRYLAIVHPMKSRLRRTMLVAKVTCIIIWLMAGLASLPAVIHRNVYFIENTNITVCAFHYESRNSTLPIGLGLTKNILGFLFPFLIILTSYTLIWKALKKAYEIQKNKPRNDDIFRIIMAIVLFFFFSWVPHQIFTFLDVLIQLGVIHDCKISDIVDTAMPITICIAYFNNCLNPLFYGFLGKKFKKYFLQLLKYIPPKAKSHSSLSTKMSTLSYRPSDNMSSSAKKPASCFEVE

T2: human angiotensin 2 type 1 receptor (human, UniProt P30556 1-359)
T2 sequence (looked up): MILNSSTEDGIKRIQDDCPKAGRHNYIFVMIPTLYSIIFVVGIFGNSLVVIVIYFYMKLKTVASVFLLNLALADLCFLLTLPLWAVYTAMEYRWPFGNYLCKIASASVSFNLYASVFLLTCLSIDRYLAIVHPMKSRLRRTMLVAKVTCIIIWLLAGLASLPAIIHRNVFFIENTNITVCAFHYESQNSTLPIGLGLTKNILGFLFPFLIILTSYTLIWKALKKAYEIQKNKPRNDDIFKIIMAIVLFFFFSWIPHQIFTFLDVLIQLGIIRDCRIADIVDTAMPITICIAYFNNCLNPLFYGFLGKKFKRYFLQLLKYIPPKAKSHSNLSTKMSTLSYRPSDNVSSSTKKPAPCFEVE

B1: SEQ ID NO: 57 (peptide)
peptide: DRVYYHP
modifications: C-terminal amide (NH2)
B2: SEQ ID NO: 58 (peptide)
peptide: DRVYYHP
modifications: D-Asp at 1; C-terminal amide (NH2)
B3: SEQ ID NO: 59 (peptide)
peptide: ERVYYHP
modifications: C-terminal amide (NH2)
B4: SEQ ID NO: 60 (peptide)
peptide: ERVYYHP
modifications: D-Glu at 1; C-terminal amide (NH2)
B5: SEQ ID NO: 61 (peptide)
peptide: DRVYYHP
modifications: N-Me-Asp (N-methyl-L-aspartic acid) at 1; C-terminal amide (NH2)
B6: SEQ ID NO: 62 (peptide)
peptide: ERVYYHP
modifications: N-Me-Glu (N-methyl-L-glutamic acid) at 1; C-terminal amide (NH2)
B7: SEQ ID NO: 63 (peptide)
peptide: DRVYFHP
modifications: C-terminal amide (NH2)
B8: SEQ ID NO: 64 (peptide)
peptide: ERVYFHP
modifications: C-terminal amide (NH2)
B9: SEQ ID NO: 65 (peptide)
peptide: DRVYFHP
modifications: N-Me-Asp (N-methyl-L-aspartic acid) at 1; C-terminal amide (NH2)
B10: SEQ ID NO: 66 (peptide)
peptide: ERVYFHP
modifications: N-Me-Glu (N-methyl-L-glutamic acid) at 1; C-terminal amide (NH2)
B11: SEQ ID NO: 82 (peptide)
peptide: ARVYIHPA
modifications: NM-D-Ala (N-methyl-D-alanine) at 1; D-Ala at 8
B12: SEQ ID NO: 13 (peptide)
peptide: RVYIHP
modifications: C-terminal amide (NH2)

Molecular target: T1, rat angiotensin 2 type 1 receptor
Assay: cell-based or functional assay

Binder	IP One Max (%)	b-arrestin2 Max (%)	b-arrestin2 EC50 [µM]	IP One EC50 (M)
B1	35.3	64.4		
B2	9.94	81.1	0.26	
B3		27.8		> 1e-05
B4		79.3	0.18	> 1e-05
B5		60.4	2.1	> 1e-05
B6		44.2		> 1e-05
B7		50.1		> 1e-05
B8		26.9		> 1e-05
B9		67.3		> 1e-05
B10		58.5	10	> 1e-05
B11		60.6		> 1e-05
B12		165		> 1e-05

Molecular target: T2, human angiotensin 2 type 1 receptor
Assay: cell-based or functional assay

Binder	IP One Max (%)	b-arrestin2 Max (%)	IP One EC50 (M)	b-arrestin2 EC50 [µM]
B1	10	42.1		
B2		48.7	> 1e-05	0.33
B3		19.5	> 1e-05	1.4
B4		44	> 1e-05	
B5		37.5	> 1e-05	1.2
B6		24.7	> 1e-05	
B7		35.9	> 1e-05	
B8		20.4	> 1e-05	1.2
B9		37.8	> 1e-05	
B10		30.6	> 1e-05	
B11		38.3	> 1e-05	
B12		43.4	> 1e-05	
